T1: K458A (Homo sapiens, UniProt P78325)
T1 construct: expressed on HEK293 cells; also called human ADAM8 point mutant K458A
T1 sequence (ADAM8, looked up): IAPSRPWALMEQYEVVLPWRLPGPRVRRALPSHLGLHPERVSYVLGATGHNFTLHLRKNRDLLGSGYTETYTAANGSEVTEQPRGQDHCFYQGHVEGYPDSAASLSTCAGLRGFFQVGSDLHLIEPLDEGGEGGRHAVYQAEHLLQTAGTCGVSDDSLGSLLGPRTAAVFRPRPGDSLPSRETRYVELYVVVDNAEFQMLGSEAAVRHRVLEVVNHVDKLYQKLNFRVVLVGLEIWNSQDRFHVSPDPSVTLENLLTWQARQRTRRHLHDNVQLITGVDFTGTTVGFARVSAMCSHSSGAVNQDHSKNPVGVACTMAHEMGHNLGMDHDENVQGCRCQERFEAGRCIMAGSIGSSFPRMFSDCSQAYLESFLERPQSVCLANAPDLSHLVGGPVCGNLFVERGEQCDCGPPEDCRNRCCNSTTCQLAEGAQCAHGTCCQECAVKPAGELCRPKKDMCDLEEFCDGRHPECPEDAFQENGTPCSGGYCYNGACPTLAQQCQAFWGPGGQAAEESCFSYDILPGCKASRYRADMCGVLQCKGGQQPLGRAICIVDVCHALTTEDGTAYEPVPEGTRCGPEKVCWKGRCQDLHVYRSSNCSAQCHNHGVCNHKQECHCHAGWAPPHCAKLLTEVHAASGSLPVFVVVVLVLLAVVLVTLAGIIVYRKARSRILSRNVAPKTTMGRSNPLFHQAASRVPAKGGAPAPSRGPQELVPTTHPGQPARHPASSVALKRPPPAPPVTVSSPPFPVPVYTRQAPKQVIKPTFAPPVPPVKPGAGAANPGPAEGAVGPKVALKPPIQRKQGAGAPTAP

T2: V459A (Homo sapiens, UniProt P78325)
T2 construct: expressed on HEK293 cells; also called human ADAM8 point mutant V459A
T2 sequence (ADAM8, looked up): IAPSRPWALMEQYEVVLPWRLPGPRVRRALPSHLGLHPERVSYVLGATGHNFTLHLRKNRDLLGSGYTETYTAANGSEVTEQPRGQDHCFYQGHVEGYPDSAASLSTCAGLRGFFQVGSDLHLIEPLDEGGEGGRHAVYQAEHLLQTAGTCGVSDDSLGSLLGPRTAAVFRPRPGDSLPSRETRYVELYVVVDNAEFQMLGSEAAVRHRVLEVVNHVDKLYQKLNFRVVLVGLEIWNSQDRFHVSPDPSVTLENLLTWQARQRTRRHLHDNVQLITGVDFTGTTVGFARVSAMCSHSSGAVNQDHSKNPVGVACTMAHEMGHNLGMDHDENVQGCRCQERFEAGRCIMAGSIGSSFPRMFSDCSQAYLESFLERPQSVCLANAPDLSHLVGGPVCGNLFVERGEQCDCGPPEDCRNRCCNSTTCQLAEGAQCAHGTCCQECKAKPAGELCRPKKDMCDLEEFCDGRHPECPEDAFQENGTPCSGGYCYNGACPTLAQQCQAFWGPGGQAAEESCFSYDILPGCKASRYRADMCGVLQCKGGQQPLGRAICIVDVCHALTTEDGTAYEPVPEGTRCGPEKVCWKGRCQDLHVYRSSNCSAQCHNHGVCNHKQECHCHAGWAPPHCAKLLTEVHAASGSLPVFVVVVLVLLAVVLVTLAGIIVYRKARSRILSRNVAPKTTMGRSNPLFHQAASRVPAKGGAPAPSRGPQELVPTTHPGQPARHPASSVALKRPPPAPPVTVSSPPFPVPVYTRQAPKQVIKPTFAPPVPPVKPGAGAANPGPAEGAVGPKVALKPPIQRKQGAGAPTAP


Assays:
[1] = molecular target: T1, K458A; test: high-throughput flow cytometry, HEK293 cells with mutant ADAM8, high stringency; range in parentheses; dotted box
Experimental: (§1) A variety of experimental parameters were optimized for high-throughput flow cytometry including blocking buffer, and primary and secondary antibody concentrations, to identify the optimal conditions for screening. Through these studies ADP2 and ADP13 were determined to be high affinity binding antibodies.
(§2) Thus, for these studies antigen-binding fragments (Fabs) of ADP2 and ADP13, which bind with lower affinity than the full antibody, were generated. In addition, higher binding stringency conditions were tested, such as increased pH, salinity, and temperature, and/or increased washing, to weaken binding sufficiently to allow identification of critical binding residues in flow cytometry. The final experimental flow cytometry conditions were: primary antibody incubation with ADP2 Fab (0.50 μg/ml), ADP13 Fab (5.00 μg/ml) and Control Ab (0.16 μg/ml) for 60 minutes in flow cytometry buffer containing 10% goat serum in PBS (Ca²⁺ and Mg²⁺ free). […] Samples were washed three times after primary antibody incubation and twice after secondary antibody incubation with PBS (Ca²⁺ and Mg′ free). Next, HEK293 cells expressing WT or mutated ADAM8 proteins or EV DNA were incubated with ADP2 or ADP13 Fabs or Control Ab at their optimal concentrations. Fab binding was detected using Alexa Fluor 488-conjugated secondary antibodies and mean cellular fluorescence determined using the Intellicyt iQue flow cytometry platform. […] This counter-screen strategy facilitates the exclusion of mutants that are locally misfolded or that have an expression defect. Binding of each test Fab to each mutant clone in the alanine scanning library was determined, in duplicate, by high-throughput flow cytometry.

[2] = molecular target: T2, V459A; test: as above
Experimental: as §1, §2

Row | Binding Reactivity (% WT) [1] | Binding Reactivity (% WT) [2] | Binder
1 | 28 % WT | – | ADP2 Fab (Fab, V domains shown) VH: EVKLVESGGGLVQPGGSLSLSCAASGFSFPDYYMSWVRQPPGKALEWLGFIRDSANGYTTEYIASVKGRFTFSRDNSQSILYLQMNALRAEDSATYYCARYSRYYGMDYWGQGTSVTVSS VL: SIVMTQTPKILLVSAGDRVTITCKASQTVNYDVAWYQQKPGQSPKPVIYFASNRYTGVPDRFTGSGFGTDFTFTISTVQAEDLAVYFCQQDYSAPWTFGGGTKLEIK
2 | – | 27.8 % WT | ADP13 Fab (Fab, V domains shown) VH: EVQLQQSGPEMVKPGTSVKISCKASGYTFTDYYINWVKQSHGKSLEWIGDISPNIGGATYNPKFKGKAILTVDKSARTAYMELRSLTSEDSAVYCCTRGGSSYPYFYAMDYWGQGTSVTVSS VL: DIVMSQSPSSLAVSVGEKVTMSCKSSQSLLYSSNQKKYLAWYQQKPGQSPKLLIYWASTRESGVPDRFTGSGSGTDFTLTISSVKAEDLAVYYCQQFYSYPYTFGGGTKLEINR

Reference: patent US20220227882A1 (TRUSTEES OF TUFTS COLLEGE, published 2022)
